The source of these data is the RNAGym collection of RNA variant scans (doi:10.1073/pnas.2313332121).

The chains are these.
B1: TPR t1 (parent)
chain: GACCAAUCUGCCCUCAGAGCUCGAGAACAUCUUCGGAUGCAGAGGAGGCAGGCUUCGGUGGCGCGAUAGCGCCAACGUCCUCAACCUCCAAUGCAUCCCACCACAUGAUGAUGCCUGAAGAGCCUUGGUUUUUUG

The variants in the data set derive from B1. Briefly: polymerase ribozyme fitness, log enrichment relative to wild type (log ratio); higher = more active; in vitro selection for triplet polymerase activity. A digest of the protocol: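 Each subunit of a heterodimeric triplet polymerase ribozyme was represented by a PCR-built, transcribed mutant library that underwent triplicate single-round in vitro selection with frozen incubation at −7 °C. Extended constructs were recovered by gel excision, streptavidin-bead capture and RT-PCR, and Illumina sequencing of input and output libraries kept genotypes with ≥10 input reads and ≥1 read per output. Fitness is the logarithm of genotype enrichment relative to wild-type enrichment, from inverse-variance-weighted replicate averages, with a logarithm base of 2.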
Take G45A C56U G69U G93U: the “polymerase ribozyme fitness (log ratio)” value is -4.17.

On to C15U G17U A91G C98U A111C, for which the “polymerase ribozyme fitness (log ratio)” value is -6.3.

C70G C82A: the “polymerase ribozyme fitness (log ratio)” value is -2.48.

Consider C28U G45A G63U U78C, for which the “polymerase ribozyme fitness (log ratio)” value was -5.

On to A37C G48A A68G U96A, for which the “polymerase ribozyme fitness (log ratio)” value is -3.13.

In the case of A68U C79A C104A A111U, the “polymerase ribozyme fitness (log ratio)” value is -8.01.

Consider G17C A26C A29G C62A G63U, for which the “polymerase ribozyme fitness (log ratio)” value was -5.05.

Regarding A2U C4A C13U C123A, the “polymerase ribozyme fitness (log ratio)” value was 1.02.

U32A G48C: the “polymerase ribozyme fitness (log ratio)” value is -5.23.

As for A43G C49G C98U G120C, the “polymerase ribozyme fitness (log ratio)” value is -3.88.

C13U U21C: the “polymerase ribozyme fitness (log ratio)” value is 0.405.

With G77C U78C A105G A119G, the “polymerase ribozyme fitness (log ratio)” value was -1.64.

In the case of G60A A111U, the “polymerase ribozyme fitness (log ratio)” value is -3.16.

For A91U C104A, the “polymerase ribozyme fitness (log ratio)” value was -4.59.

As to C8G C49A U96A, the “polymerase ribozyme fitness (log ratio)” value was -0.377.

Take C15A U59A C101A: the “polymerase ribozyme fitness (log ratio)” value was -3.37.

U21G G120U C123A: the “polymerase ribozyme fitness (log ratio)” value was -1.07.

For G61C A75U C97U, the “polymerase ribozyme fitness (log ratio)” value was -0.192.

On to G110U U112A, for which the “polymerase ribozyme fitness (log ratio)” value is -2.85.

For the variant G63U C64U, the “polymerase ribozyme fitness (log ratio)” value is -6.21.

For the variant A5G G35A U78A C101U, the “polymerase ribozyme fitness (log ratio)” value was -3.77.

Turning to C8G G71U C82U C86U, the “polymerase ribozyme fitness (log ratio)” value was -1.12.

For the variant G71A G135A, the “polymerase ribozyme fitness (log ratio)” value was -1.21.

Consider C4U A41U U112A G113C G122C, for which the “polymerase ribozyme fitness (log ratio)” value was -2.19.

In the case of A2U U9A C11U A18C C20A C31G G77A A83G C97A G113U C124U, the “polymerase ribozyme fitness (log ratio)” value is -7.17.

G48A C115U: the “polymerase ribozyme fitness (log ratio)” value was -1.61.

Consider C8G C15G C70G C114U, for which the “polymerase ribozyme fitness (log ratio)” value is -5.64.

As to C82G A91C, the “polymerase ribozyme fitness (log ratio)” value is -2.29.

With U7A G17U C62U A111C G135U, the “polymerase ribozyme fitness (log ratio)” value is -4.01.

With G63A C82U C85U A90U C98U A118U, the “polymerase ribozyme fitness (log ratio)” value was -5.21.

As to C12U G42A A90G G128U, the “polymerase ribozyme fitness (log ratio)” value is -2.7.

Turning to G60A C86A C98G U109A G117U, the “polymerase ribozyme fitness (log ratio)” value is -6.71.

In the case of G63U U112C, the “polymerase ribozyme fitness (log ratio)” value was -0.421.

As to C56U U78C U106A G120A, the “polymerase ribozyme fitness (log ratio)” value was determined as 0.24.

With G47C U78A, the “polymerase ribozyme fitness (log ratio)” value was -1.42.

G45U A74C G77A U112C: the “polymerase ribozyme fitness (log ratio)” value is 1.05.

As for C8A C11G U54C U106A, the “polymerase ribozyme fitness (log ratio)” value came out at 0.24.

Take C3U U9A C123A: the “polymerase ribozyme fitness (log ratio)” value worked out at 1.32.

Turning to C11G U54C, the “polymerase ribozyme fitness (log ratio)” value is -0.0215.

Turning to A26C G39C C56A A100G U112C, the “polymerase ribozyme fitness (log ratio)” value was -7.51.

With U78C A83C C89G, the “polymerase ribozyme fitness (log ratio)” value is -2.02.

Turning to A50U A118C A121G U129A, the “polymerase ribozyme fitness (log ratio)” value is -1.76.

With A50U G57U, the “polymerase ribozyme fitness (log ratio)” value was -1.1.

As for C53A G110A, the “polymerase ribozyme fitness (log ratio)” value was -0.6.

A6U G63C: the “polymerase ribozyme fitness (log ratio)” value was -0.899.

For G61U G65A, the “polymerase ribozyme fitness (log ratio)” value was -4.98.

With C62A C64U C114A A121U C123G, the “polymerase ribozyme fitness (log ratio)” value was -4.48.

As for U7A A37U C70G U78A, the “polymerase ribozyme fitness (log ratio)” value is -3.04.

For A26G C104U G110C C115A, the “polymerase ribozyme fitness (log ratio)” value was -5.13.

G19C U78C A90G G113U C114U: the “polymerase ribozyme fitness (log ratio)” value was -0.588.

In the case of U78A C88U U96G U129A U131A, the “polymerase ribozyme fitness (log ratio)” value is -2.62.

Regarding A5C C40G, the “polymerase ribozyme fitness (log ratio)” value was -1.78.

With A29G U92A, the “polymerase ribozyme fitness (log ratio)” value was -3.71.

On to C101A U109A, for which the “polymerase ribozyme fitness (log ratio)” value is -5.05.

In the case of G42U G47C C49G, the “polymerase ribozyme fitness (log ratio)” value is -2.84.

In the case of C28G U33A C53A C114U G128U U133A, the “polymerase ribozyme fitness (log ratio)” value is -7.29.

Take A6C A118U: the “polymerase ribozyme fitness (log ratio)” value came to 0.712.

As for U9C C11A A18C C53G C80G C99A G110U, the “polymerase ribozyme fitness (log ratio)” value was -6.83.

As for A18C C56U, the “polymerase ribozyme fitness (log ratio)” value is -2.56.

C72U U96G U106A G113A: the “polymerase ribozyme fitness (log ratio)” value was -2.89.

With G60U C123G C124U, the “polymerase ribozyme fitness (log ratio)” value amounted to 2.24.

For C11G C53A G61C, the “polymerase ribozyme fitness (log ratio)” value was -4.59.

G60C A105U: the “polymerase ribozyme fitness (log ratio)” value is -3.07.

For the variant A46U C49A, the “polymerase ribozyme fitness (log ratio)” value is -0.332.

As to C11U C124G, the “polymerase ribozyme fitness (log ratio)” value came out at 1.46.

G69A U130A: the “polymerase ribozyme fitness (log ratio)” value is -3.11.

Turning to C22A C115G, the “polymerase ribozyme fitness (log ratio)” value is -3.77.

For the variant G17U C40G C99G A111U, the “polymerase ribozyme fitness (log ratio)” value is -6.82.

With U7A A29G C64U C88A C104A, the “polymerase ribozyme fitness (log ratio)” value is -1.32.

With U14C A111U, the “polymerase ribozyme fitness (log ratio)” value is -4.43.

For the variant G60U U81A, the “polymerase ribozyme fitness (log ratio)” value was -0.347.

Take C13U C53U C114A G120C: the “polymerase ribozyme fitness (log ratio)” value is -1.1.

Consider G42A U112G, for which the “polymerase ribozyme fitness (log ratio)” value was -2.1.

C49U U55A C62U C99U A111U: the “polymerase ribozyme fitness (log ratio)” value was -7.19.

As for C8A G93C A100C C115U, the “polymerase ribozyme fitness (log ratio)” value is -4.5.

As for U7C G60A C89G U130G, the “polymerase ribozyme fitness (log ratio)” value is -1.83.

Regarding G57A A103C G120C C124A, the “polymerase ribozyme fitness (log ratio)” value is -4.81.

For the variant G47A C86A, the “polymerase ribozyme fitness (log ratio)” value was -0.754.

For the variant A74U C88A C104A, the “polymerase ribozyme fitness (log ratio)” value is -2.72.

In the case of C104A G113C, the “polymerase ribozyme fitness (log ratio)” value was -4.17.

Regarding U9A A37U U81G, the “polymerase ribozyme fitness (log ratio)” value was -2.86.

On to U32A A50G C85U U87A, for which the “polymerase ribozyme fitness (log ratio)” value is -4.8.

G47C C73U C102U G127U: the “polymerase ribozyme fitness (log ratio)” value was -5.08.

As to C15G A26C U54G G71U C114U, the “polymerase ribozyme fitness (log ratio)” value is -5.95.
